Reference: patent US20240342207, “MODIFIED NUCLEIC ACID COMPOSITIONS AND ASSOCIATED METHODS FOR TREATMENT OF PHENYLKETONURIA” (BOARD OF REGENTS, THE UNIVERSITY OF TEXAS SYSTEM, published 2024)

How the values were obtained:
Test in all cases: EMSA; one of 13 of 17 binding mutants; affinity not decreased
Details in all cases: tags: His-tag, E. coli; stem-loop
PAH P281L = target: T1, PAH P281L (Homo sapiens, UniProt P00439 P00439:1-452, P281L)
T1 sequence: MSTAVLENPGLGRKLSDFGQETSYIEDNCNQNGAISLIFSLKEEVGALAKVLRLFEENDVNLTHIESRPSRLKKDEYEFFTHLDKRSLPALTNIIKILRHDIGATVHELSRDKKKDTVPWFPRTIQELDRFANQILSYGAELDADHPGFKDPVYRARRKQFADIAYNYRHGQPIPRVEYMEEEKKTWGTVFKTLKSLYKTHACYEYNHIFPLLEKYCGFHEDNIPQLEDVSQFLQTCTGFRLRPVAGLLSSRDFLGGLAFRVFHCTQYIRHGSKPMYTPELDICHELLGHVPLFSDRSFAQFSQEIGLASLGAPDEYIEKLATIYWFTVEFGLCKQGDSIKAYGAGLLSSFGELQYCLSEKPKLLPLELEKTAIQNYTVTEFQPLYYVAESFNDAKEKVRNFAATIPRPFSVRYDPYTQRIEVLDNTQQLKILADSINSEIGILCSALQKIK

PAH I283N = target: T2, PAH I283N (Homo sapiens, UniProt P00439 P00439:1-452, I283N)
T2 sequence: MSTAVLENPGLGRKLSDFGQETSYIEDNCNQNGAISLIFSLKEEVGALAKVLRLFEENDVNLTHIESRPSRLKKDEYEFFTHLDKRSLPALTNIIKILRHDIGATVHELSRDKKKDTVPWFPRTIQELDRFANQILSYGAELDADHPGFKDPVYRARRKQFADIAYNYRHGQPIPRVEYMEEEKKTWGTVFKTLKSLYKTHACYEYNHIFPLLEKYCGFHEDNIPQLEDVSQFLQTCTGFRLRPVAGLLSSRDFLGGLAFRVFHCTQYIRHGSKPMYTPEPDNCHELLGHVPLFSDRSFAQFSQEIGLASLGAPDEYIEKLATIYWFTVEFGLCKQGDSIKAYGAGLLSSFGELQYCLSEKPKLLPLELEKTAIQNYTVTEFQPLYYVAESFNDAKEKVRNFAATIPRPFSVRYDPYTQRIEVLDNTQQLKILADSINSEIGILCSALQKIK

PAH R408W = target: T3, PAH R408W (Homo sapiens, UniProt P00439 P00439:1-452, R408W)
T3 sequence: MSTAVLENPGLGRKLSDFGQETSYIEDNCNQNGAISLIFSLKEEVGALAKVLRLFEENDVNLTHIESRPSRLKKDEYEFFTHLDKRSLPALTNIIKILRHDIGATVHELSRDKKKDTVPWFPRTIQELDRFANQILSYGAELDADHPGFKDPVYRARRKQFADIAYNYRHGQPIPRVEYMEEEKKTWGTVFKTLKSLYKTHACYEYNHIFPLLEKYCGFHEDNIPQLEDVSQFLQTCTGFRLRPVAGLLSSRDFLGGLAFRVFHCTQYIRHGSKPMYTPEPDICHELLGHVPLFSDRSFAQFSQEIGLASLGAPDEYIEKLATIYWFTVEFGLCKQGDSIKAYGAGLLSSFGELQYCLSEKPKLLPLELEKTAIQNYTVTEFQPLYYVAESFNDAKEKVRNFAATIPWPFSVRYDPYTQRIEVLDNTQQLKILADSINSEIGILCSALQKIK

PAH A47V = target: T4, PAH A47V (Homo sapiens, UniProt P00439 P00439:1-452, A47V)
T4 sequence: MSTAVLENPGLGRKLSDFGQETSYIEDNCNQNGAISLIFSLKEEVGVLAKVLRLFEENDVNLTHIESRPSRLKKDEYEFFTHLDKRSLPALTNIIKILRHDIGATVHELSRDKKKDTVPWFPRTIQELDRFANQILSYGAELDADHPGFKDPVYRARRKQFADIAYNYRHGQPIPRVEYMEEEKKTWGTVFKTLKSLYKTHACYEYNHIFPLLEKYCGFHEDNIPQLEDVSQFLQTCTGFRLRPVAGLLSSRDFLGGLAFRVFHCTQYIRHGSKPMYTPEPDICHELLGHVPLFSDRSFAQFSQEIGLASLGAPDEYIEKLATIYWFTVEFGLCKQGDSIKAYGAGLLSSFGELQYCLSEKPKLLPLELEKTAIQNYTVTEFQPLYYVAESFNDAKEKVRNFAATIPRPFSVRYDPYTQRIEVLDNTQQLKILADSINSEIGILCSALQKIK

PAH I65S = target: T5, PAH I65S (Homo sapiens, UniProt P00439 P00439:1-452, I65S)
T5 sequence: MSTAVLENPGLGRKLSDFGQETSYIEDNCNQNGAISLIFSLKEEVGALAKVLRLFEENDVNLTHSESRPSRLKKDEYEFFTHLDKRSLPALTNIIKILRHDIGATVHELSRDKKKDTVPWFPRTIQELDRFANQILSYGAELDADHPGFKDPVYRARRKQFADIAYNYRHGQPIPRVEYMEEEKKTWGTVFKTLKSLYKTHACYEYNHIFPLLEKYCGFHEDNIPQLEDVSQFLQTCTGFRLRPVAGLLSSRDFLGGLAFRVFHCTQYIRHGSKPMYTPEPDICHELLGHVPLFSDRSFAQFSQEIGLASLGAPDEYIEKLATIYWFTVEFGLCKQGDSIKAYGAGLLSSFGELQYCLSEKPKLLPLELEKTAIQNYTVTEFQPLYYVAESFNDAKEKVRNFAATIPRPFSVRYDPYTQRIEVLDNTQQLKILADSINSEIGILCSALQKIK

Measured: binding result

B1: HULC 181-201 mimic (ssRNA)
RNA: CAAAAUGCAUAUGUAUCUUUG
binds: PAH P281L | PAH I283N | PAH R408W | PAH A47V | PAH I65S
